Reference: paper PMC3535368, “Heme orientation modulates histidine dissociation and ligand binding kinetics in the hexacoordinated human neuroglobin” (Journal of Biological Inorganic Chemistry, 2012)
Where two headings read alike, the source gives them in different places.

B1: WTox (A isomer): oxidized wild-type human Ngb (Cys46-Cys55 disulfide bridge), A heme conformer (protein, UniProt Q9NPG2 1-151, looked up)
Neuroglobin: MERPEPELIRQSWRAVSRSPLEHGTVLFARLFALEPDLLPLFQYNCRQFSSPEDCLSSPEFLDHIRKVMLVIDAAVTNVEDLSSLEEYLASLGRKHRAVGVKLSSFSTVGESLLYMLEKCLGPAFTPATRAAWSQLYGAVVQAMSRGWDGE
modifications: oxidized, heme A isomer
B2: WTred: wild-type human Ngb with reduced cysteines, both heme isomers (protein, UniProt Q9NPG2 1-151, looked up)
Neuroglobin: MERPEPELIRQSWRAVSRSPLEHGTVLFARLFALEPDLLPLFQYNCRQFSSPEDCLSSPEFLDHIRKVMLVIDAAVTNVEDLSSLEEYLASLGRKHRAVGVKLSSFSTVGESLLYMLEKCLGPAFTPATRAAWSQLYGAVVQAMSRGWDGE
modifications: reduced cysteines
notes: wild-type human Ngb with reduced cysteines, both heme isomers
B3: C120Sred (B isomer) (protein, UniProt Q9NPG2 1-151, looked up, variant C120S)
Neuroglobin: MERPEPELIRQSWRAVSRSPLEHGTVLFARLFALEPDLLPLFQYNCRQFSSPEDCLSSPEFLDHIRKVMLVIDAAVTNVEDLSSLEEYLASLGRKHRAVGVKLSSFSTVGESLLYMLEKSLGPAFTPATRAAWSQLYGAVVQAMSRGWDGE
modifications: reduced, heme B isomer
B4: WTred (A isomer): DTT-reduced wild-type human Ngb, A heme conformer (protein, UniProt Q9NPG2 1-151, looked up)
Neuroglobin: MERPEPELIRQSWRAVSRSPLEHGTVLFARLFALEPDLLPLFQYNCRQFSSPEDCLSSPEFLDHIRKVMLVIDAAVTNVEDLSSLEEYLASLGRKHRAVGVKLSSFSTVGESLLYMLEKCLGPAFTPATRAAWSQLYGAVVQAMSRGWDGE
modifications: DTT-reduced, heme A conformer
B5: WTox (B isomer): oxidized wild-type human Ngb (Cys46-Cys55 disulfide bridge), B heme conformer (protein, UniProt Q9NPG2 1-151, looked up)
Neuroglobin: MERPEPELIRQSWRAVSRSPLEHGTVLFARLFALEPDLLPLFQYNCRQFSSPEDCLSSPEFLDHIRKVMLVIDAAVTNVEDLSSLEEYLASLGRKHRAVGVKLSSFSTVGESLLYMLEKCLGPAFTPATRAAWSQLYGAVVQAMSRGWDGE
modifications: oxidized, heme B isomer
B6: WTred (B isomer): DTT-reduced wild-type human Ngb, B heme conformer (protein, UniProt Q9NPG2 1-151, looked up)
Neuroglobin: MERPEPELIRQSWRAVSRSPLEHGTVLFARLFALEPDLLPLFQYNCRQFSSPEDCLSSPEFLDHIRKVMLVIDAAVTNVEDLSSLEEYLASLGRKHRAVGVKLSSFSTVGESLLYMLEKCLGPAFTPATRAAWSQLYGAVVQAMSRGWDGE
modifications: DTT-reduced, heme B conformer
B7: C120Sox (B isomer) (protein, UniProt Q9NPG2 1-151, looked up, variant C120S)
Neuroglobin: MERPEPELIRQSWRAVSRSPLEHGTVLFARLFALEPDLLPLFQYNCRQFSSPEDCLSSPEFLDHIRKVMLVIDAAVTNVEDLSSLEEYLASLGRKHRAVGVKLSSFSTVGESLLYMLEKSLGPAFTPATRAAWSQLYGAVVQAMSRGWDGE
modifications: oxidized, heme B isomer
B8: C120Sox (A isomer) (protein, UniProt Q9NPG2 1-151, looked up, variant C120S)
Neuroglobin: MERPEPELIRQSWRAVSRSPLEHGTVLFARLFALEPDLLPLFQYNCRQFSSPEDCLSSPEFLDHIRKVMLVIDAAVTNVEDLSSLEEYLASLGRKHRAVGVKLSSFSTVGESLLYMLEKSLGPAFTPATRAAWSQLYGAVVQAMSRGWDGE
modifications: oxidized, heme A isomer
B9: human Ngb: human neuroglobin, hexacoordinated hemoprotein of brain and retina (protein, UniProt Q9NPG2 1-151, looked up)
Neuroglobin: MERPEPELIRQSWRAVSRSPLEHGTVLFARLFALEPDLLPLFQYNCRQFSSPEDCLSSPEFLDHIRKVMLVIDAAVTNVEDLSSLEEYLASLGRKHRAVGVKLSSFSTVGESLLYMLEKCLGPAFTPATRAAWSQLYGAVVQAMSRGWDGE
B10: C120Sred (A isomer) (protein, UniProt Q9NPG2 1-151, looked up, variant C120S)
Neuroglobin: MERPEPELIRQSWRAVSRSPLEHGTVLFARLFALEPDLLPLFQYNCRQFSSPEDCLSSPEFLDHIRKVMLVIDAAVTNVEDLSSLEEYLASLGRKHRAVGVKLSSFSTVGESLLYMLEKSLGPAFTPATRAAWSQLYGAVVQAMSRGWDGE
modifications: reduced, heme A isomer

Assays:
[1] = for fraction of isomer remaining unbound (free) at equilibrium: end of reaction; for k off, off-rate of cyanide: estimated from K d and k obs; for Kd: read-out: K d, dissociation constant of cyanide, calculated from concentrations of free and bound species at equilibrium
[2] = Air reoxidation of the disulfide bridge followed by 1H NMR, cyanide omitted; assay type: physicochemical, human; conditions: no reducing agent, increase of WTox peak intensity
[3] = set-up: method as in PMID 15020597; conditions: UV-visible study; cited from earlier work
[4] = 500 μM KCN, 100 μM protein, 20 mM Tris-HCl pH 7.4, 298 K
[5] = calculated from T and 500 μM cyanide, 1/T = k obs[CN−]

Molecule | T, time constant of cyanide binding (exponential fit of heme methyl peak intensities) [1, 4] | k obs, second-order association rate constant for cyanide binding [1, 5] | k obs, second-order association rate constant for cyanide binding [1] | T, time constant of cyanide binding (exponential fit of heme methyl peak intensities) ([1]; pH 7.4) | other results
B1 | 19 min | 1.75 M⁻¹ s⁻¹ | – | – | time after KCN injection at which CN− binding reaction was completed ([1]; judged from constant peak intensities, 500 μM KCN): 60 min
B2 | – | – | – | – | rate (time) of air reoxidation of the disulfide bridge [2]: about 60 h
B3 | – | – | 0.13 M⁻¹ s⁻¹ | 255 min | –
B4 | 127 min | 0.26 M⁻¹ s⁻¹ | – | – | fraction of isomer remaining unbound (free) at equilibrium ([1]; 500 μM KCN, 100 μM protein): about 42%; k off, off-rate of cyanide [1]: 3.9e-05 s⁻¹; Kd [1]: 153 µM
B5 | 97 min | 0.34 M⁻¹ s⁻¹ | – | – | time after which CN− binding reaction was hardly finished ([1]; 500 μM KCN): ~5 h
B6 | 265 min | 0.12 M⁻¹ s⁻¹ | – | – | fraction of isomer remaining unbound (free) at equilibrium ([1]; 500 μM KCN, 100 μM protein): ~24%; k off, off-rate of cyanide [1]: 3.9e-05 s⁻¹; Kd [1]: 316 µM
B7 | – | – | 0.28 M⁻¹ s⁻¹ | 119 min | –
B8 | – | – | 1.85 M⁻¹ s⁻¹ | 18 min | –
B9 | – | – | – | – | fast cyanide binding rate (biphasic) [3]: 1.65 M⁻¹ s⁻¹; slow cyanide binding rate (biphasic) [3]: 0.37 M⁻¹ s⁻¹; k on,CN, rate of cyanide binding to the pentacoordinate state ([1]; estimated here): 6700 M⁻¹ s⁻¹
B10 | – | – | 0.24 M⁻¹ s⁻¹ | 138 min | –
